Measurements from patent US20230174955A1.

B1: secreted mimi-virus P4H from Pichia (vector MMV-644; strains PP765, PP766, PP767), with 6X His tag at the C-terminus (protein)
chain: VLSKSCVSHFRNVGSLNSRDVNLKDDFSYANIDDPYNKPFVLNNLINPTKCQEIMQFANGKLFDSQVLSGTDKNIRNSQQMWISKNNPMVKPIFENICRQFNVPFDNAEDLQVVRYLPNQYYNEHHDSCCDSSKQCSEFIERGGQRILTVLIYLNNEFSDGHTYFPNLNQKFKPKTGDALVFYPLANNSNKCHPYSLHAGMPVTSGEKWIANLWFRERKFSHHHHHH

Key:
[1] = target: full length collagen (with foldON), expressed in Pichia strain PP654 (vector MMV-398); test: cell-based or functional assay
[2] = target: collagen secreted by strains PP766 and PP767 along with mimiP4H
[3] = target: collagen substrate of the in-vitro hydroxylation reaction with purified secreted mimiP4H
[4] = target: purified collagen derived from strain PP685, added to fermentation supernatant

| Molecule | hydroxylation level of collagen (mass spec of gel band; in vivo, PP654 in fermenters) [1] | hydroxylation of secreted collagen in fermentation supernatant [2] | %HyP, colorimetric assay, in-vitro hydroxylation reaction [3] | hydroxylation of added purified collagen in unpurified fermentation supernatant [4] |
| --- | --- | --- | --- | --- |
| mimi-virus P4H (monomeric prolyl 4-hydroxylase), intracellular, expressed in Pichia strain PP654 from vector MMV-580 (enzyme) | 17% |  |  |  |
| B1 |  | An increase in hydroxylation was observed for both the secreted collagen and added purified collagen | Ni-NTA purified mimiP4H showed 24% hydroxylation | All reactions showed an increase in the hydroxylation over the pre-reaction levels (~3%) |
